Test [1] has as its target SARS-CoV-2 +E484K B.1.1.7 Spike Protein (R&D, Cat. #10824-CV) (SARS-CoV-2) (UniProt P0DTC2). The experiment in a line: direct ELISA on coated spike.
For test [2] the target is unchanged. The experiment in a line: BLI (ForteBio), mAb on AHC sensor, spike in solution.
The target is the same in test [3]. Kind of test: competition ELISA: blocks biotin-ACE2 binding to coated spike.
For test [4] the target is unchanged. The test is described as above. The source holds these as a separate data set.

Usually EC50 stands for the concentration giving half of the maximal effect. In general, Kd refers to the equilibrium constant for the complex coming apart. High values mean lower affinity, low ones higher affinity. One may read the IC50 as the concentration that gives 50% inhibition. A lower IC50 goes with inhibition by little substance.

Read-outs that look alike come from different tables or passages of the source.

In test [1], Casirivimab (antibody) returned an EC50 of 0.0584 nM. For the same substance, the Kd in test [2] amounted to 3.4 nM. The IC50 in test [3] came out at 3.13 nM; in test [4], 3.3 nM.
Imdevimab (antibody): the EC50 in test [1] was found to be 0.0505 nM. This substance also came in with a Kd in test [2] of 0.831 nM.

(Values after patent US20260250363A1.)
